Read-outs that look alike come from different tables or passages of the source.
B1: anti-Nef (antibody, V domains shown)
VH: QVQLQQSGAELVKPGASVKLSCTASGFNIKDTYMHWVKQRPEQGLEWIGRIDPANGNTKYDPKFQGKATITADTSSNTAYLQLSSLTSEDTAVYYCASYYGIYWGQGTTLTVSS
VL: DIKMTQSPSSLSASLGERVSLTCRASQEISGYLSWLQQKPDGTIKRLIYAVSTLDSGVPKRFSGSRSGSDYSLTISSLESEDFADYYCLQYATYPLTFGAGTKLELK
B2: anti-Nef antibody (single-chain variable fragment for which the antigen is HIV Nef protein) (scFv, V domains shown)
VH: EVKLVESGAELVRPGASVKLSCTASGFNIKDDYMHWVKQRPEQGLEWIGWIDPENGDTEYASKFQGKATITADTSSNTAYLQLSSLTSEDTAVYYCTTRDVWGAGTTVTVMA
VL: DIKMTQSPSSLSASLGERVSLTCRASQEISGYLSWLQQKPDGTIKRLIYAVSTLDSGVPKRFSGSRSGSDYSLTISSLESEDFADYYCLQYATYPLTFGAGTKLELK
notes: scFv isolated in vitro from a constructed mouse antibody library; Section 2.4 describes expression in E. coli MV1184 and purification on an IgG-conjugated column for the antibody vectors; also called wt anti-Nef antibody; scFv

What was measured:
[1] = target: T1, Nef protein (HIV-1 NL43), wild type (HIV-1 NL4-3 (NL43), strain)
T1 chain: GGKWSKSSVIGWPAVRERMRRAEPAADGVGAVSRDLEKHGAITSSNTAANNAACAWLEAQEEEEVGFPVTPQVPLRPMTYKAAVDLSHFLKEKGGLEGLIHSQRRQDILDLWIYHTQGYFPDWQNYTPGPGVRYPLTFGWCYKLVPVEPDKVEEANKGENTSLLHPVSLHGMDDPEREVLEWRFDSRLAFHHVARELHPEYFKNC

[2] = target: T1, Nef protein (HIV-1 NL43), wild type; assay: far-Western, overlay or dot blot; Western blotting: Nef wt and Nef Δ2-11 resolved by SDS-PAGE, transferred to PVDF, probed with the anti-Nef antibody, detected with anti-streptavidin IgG-HRP; anti-His-tag antibody as control; details: both partners purified

Row | Binder | binding result [1] | binding result [2]
1 | B1 | binds | –
2 | B2 | – | binds

Source: PMC6111544, “Development of a Novel Q-body Using an In Vivo Site-Specific Unnatural Amino Acid Incorporation System” (Sensors (Basel, Switzerland), 2018)
